Data taken from PMC6192996, “Loss of a conserved salt bridge in bacterial glycosyl hydrolase BgIM-G1 improves substrate binding in temperate environments” (Communications Biology, 2018).

Key:
BglM-G1 = target: T1, BglM-G1 (marine metagenome, UniProt Z9E642Q5N2); assay: X-ray crystal structure, […] Å, soaked crystals; assay type: binding; settings: 6 mM ligand soak 24 h, pH 7.5, 18 °C; active site
T1 construct: codon-optimised synthetic gene in pOE, E. coli BL21(DE3); N-terminal MHHHHHHENLYFQGH tag TEV-cleaved, scar GH; theoretical mass 49,874 Da; monomer in solution
T1 sequence (Z9E642Q5N2 16-455 H90R): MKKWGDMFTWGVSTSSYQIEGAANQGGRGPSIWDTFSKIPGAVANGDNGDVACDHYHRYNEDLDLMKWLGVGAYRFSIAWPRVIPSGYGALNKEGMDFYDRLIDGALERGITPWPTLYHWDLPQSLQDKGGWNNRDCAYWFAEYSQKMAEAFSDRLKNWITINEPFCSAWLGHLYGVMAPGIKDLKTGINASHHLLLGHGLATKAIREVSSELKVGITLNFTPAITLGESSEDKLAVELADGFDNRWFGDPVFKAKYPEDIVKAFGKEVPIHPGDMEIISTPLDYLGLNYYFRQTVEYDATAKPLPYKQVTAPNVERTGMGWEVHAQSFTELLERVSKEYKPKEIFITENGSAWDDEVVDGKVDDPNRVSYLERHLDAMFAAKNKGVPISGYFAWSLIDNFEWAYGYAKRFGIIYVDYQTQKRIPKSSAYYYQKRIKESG

[1] = test system: C[C@H]1O[C@@H](Oc2ccc([N+](=O)[O-])cc2)[C@H](O)[C@@H](O)[C@H]1O; assay: purified protein; settings: 100 mM sodium citrate pH 6.0, 45 °C
[2] = test system: O=[N+]([O-])c1ccc(O[C@@H]2O[C@H](CO)[C@@H](O)[C@H](O)[C@H]2O)cc1; assay: purified protein; settings: 100 mM sodium citrate pH 6.0, 45 °C

Molecule	X-ray crystal structure, 1.55 Å, soaked crystals (BglM-G1)	Km [1] [µM]	kcat [1] [s⁻¹]	kcat/Km [1] [M⁻¹ s⁻¹]	Km [2] [µM]	kcat [2] [s⁻¹]	kcat/Km [2] [M⁻¹ s⁻¹]
OC[C@H]1NC[C@H](O)[C@@H](O)[C@@H]1O [1-deoxynojirimycin]	we co-crystallized the H75R variant with the glucosidase inhibitor 1-deoxynojirimycin						
BglM-G1 (marine metagenome)		88 ± 38	41.4 ± 3	519000 ± 146000	135 ± 16	55.6 ± 1.5	417000 ± 44000
